B1: Phage shock protein B (Escherichia coli (strain K12)), P0AFM9 (parent)
chain: MSALFLAIPLTIFVLFVLPIWLWLHYSNRSGRSELSQSEQQRLAQLADEAKRMRERIQALESILDAEHPNWRDR
partner: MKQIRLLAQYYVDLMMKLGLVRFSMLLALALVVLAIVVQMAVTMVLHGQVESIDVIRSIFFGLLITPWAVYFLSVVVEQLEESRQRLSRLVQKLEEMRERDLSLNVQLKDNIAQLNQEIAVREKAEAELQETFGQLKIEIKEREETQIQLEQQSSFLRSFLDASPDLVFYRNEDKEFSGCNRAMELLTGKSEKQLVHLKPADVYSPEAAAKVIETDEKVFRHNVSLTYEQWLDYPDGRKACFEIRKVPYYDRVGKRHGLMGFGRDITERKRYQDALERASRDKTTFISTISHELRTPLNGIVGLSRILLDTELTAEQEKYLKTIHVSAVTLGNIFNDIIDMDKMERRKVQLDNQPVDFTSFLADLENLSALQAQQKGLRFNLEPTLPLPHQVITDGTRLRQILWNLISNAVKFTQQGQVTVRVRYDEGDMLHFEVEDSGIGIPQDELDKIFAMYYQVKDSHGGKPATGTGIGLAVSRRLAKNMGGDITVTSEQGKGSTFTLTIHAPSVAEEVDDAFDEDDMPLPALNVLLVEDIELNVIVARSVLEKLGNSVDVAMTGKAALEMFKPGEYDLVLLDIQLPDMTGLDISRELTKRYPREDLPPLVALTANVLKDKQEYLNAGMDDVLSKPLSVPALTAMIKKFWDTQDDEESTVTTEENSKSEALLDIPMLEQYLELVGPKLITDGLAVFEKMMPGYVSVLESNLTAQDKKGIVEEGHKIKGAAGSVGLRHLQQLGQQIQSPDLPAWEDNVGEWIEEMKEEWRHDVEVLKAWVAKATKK
B2: Aerobic respiration control sensor protein ArcB (Escherichia coli (strain K12)), P0AEC3 (parent)
chain: B1 partner
partner: B1 chain
B3: Aerobic respiration control sensor protein ArcB (Escherichia coli (strain K12)), P0AEC3 (parent)
chain: B1 partner

Variants of: B1
Settings: with arcb_ecoli arcB, P0AEC3

Variant	effect of a mutation on the interaction
MSALFLAIPATIFVAFVAPIWLWLHYSNRSGRSELSQSEQQRLAQLADEAKRMRERIQALESILDAEHPNWRDR [L10A;L15A;L18A]	decreasing interaction strength

Variants of: B2
Settings: with pspb_ecoli pspB, P0AFM9

Variant	effect of a mutation on the interaction
L87A;L90A;L94A;M97A	decreasing interaction strength

Variants of: B3
Settings: with pspa_ecoli pspA

Variant	effect of a mutation on the interaction
L87A;L90A;L94A;M97A	decreasing interaction strength
